Our source for the binding result and Kd values is patent publication US20130253173A1 (Novo Nordisk, published 2013).

Experiment [1] has as its target T1, truncated TFPI (1-239) (human, UniProt P10646 29-267).
T1 construct: Expressed in HEK293-F cells; conditioned medium used
T1 sequence: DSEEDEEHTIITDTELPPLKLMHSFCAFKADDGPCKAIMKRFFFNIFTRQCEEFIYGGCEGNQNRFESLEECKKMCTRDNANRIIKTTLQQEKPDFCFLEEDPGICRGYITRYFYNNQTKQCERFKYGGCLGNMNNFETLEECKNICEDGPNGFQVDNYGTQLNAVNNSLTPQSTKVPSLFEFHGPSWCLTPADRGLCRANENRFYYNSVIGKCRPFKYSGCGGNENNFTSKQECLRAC
Description: binding of TFPI variants to anti-TFPI MAbs relative to TFPI-WT (=1.0); ELISA or ForteBio with HEK293-F conditioned medium, Example 7. The protocol: (§1) The effect of truncating the C-terminal tail of TFPI on TFPI's binding affinity to MuTFPI22F66, MuTFPI22F71, MuTFPI22F74, MuTFPI22F79 and MuTFPI22F132 was analyzed by means of ELISA, or real-time binding analysis, using the ForteBio platform. […] The ELISAs, or the real-time binding analyses, were carried out using the conditioned medium from the cell cultures.
(§2) The concentrations of wt TFPI and truncated TFPI mutants in the conditioned medium were estimated by means of an ELISA that binds TFPI K1-K2 (Goat anti-TFPI, in-house) and K2 (MAb4F36, in-house). The binding to these antibodies is not affected by the truncations. Alternatively, biotin-labelled MAb4F36 was captured on streptavidin coated BioSensor tips (ForteBio) and used for concentration estimations.
(§3) In the ELISA setting, the effect of the mutations on TFPI's ability to bind to MuTFPI22F66, MuTFPI22F71, MuTFPI22F74, MuTFPI22F79 or MuTFPI22F132 was analyzed using each of the listed MAbs as capturing antibody and using MAb4F36 for detection. Direct binding of TFPI variants to biotin-labelled MuTFPI22F66, MuTFPI22F71, MuTFPI22F74, MuTFPI22F79, and MuTFPI22F132, captured on streptavidin coated BioSensor tips (ForteBio), was measured using the ForteBio platform.
For orientation: ELISA stands for enzyme-linked immunosorbent assay.

The target of experiment [2] is T2, Rabbit TFPI (rabbit, UniProt P19761 25-300, limits assumed).
T2 sequence (looked up): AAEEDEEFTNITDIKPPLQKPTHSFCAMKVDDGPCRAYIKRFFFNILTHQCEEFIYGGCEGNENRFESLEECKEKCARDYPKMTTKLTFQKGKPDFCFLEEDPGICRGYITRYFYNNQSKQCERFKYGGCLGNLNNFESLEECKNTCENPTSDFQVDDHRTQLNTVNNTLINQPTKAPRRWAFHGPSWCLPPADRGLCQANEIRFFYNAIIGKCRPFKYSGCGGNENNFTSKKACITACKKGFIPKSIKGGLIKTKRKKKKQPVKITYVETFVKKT
Description: SPR (Biacore 3000), mAb captured on immobilised anti-mouse IgG, TFPI in solution, 1:1 model. The method, then:
(§4) Binding interaction analysis was obtained by Surface Plasmon Resonance in a Biacore 3000. Capture of the relevant monoclonal antibody at a fixed concentration was obtained with immobilised mouse anti-IgG. Different concentrations of TFPI were tested. Determination of binding constants (kₒₙ, koff, KD) was obtained assuming a 1:1 interaction of TFPI and the antibody of interest.
A general note: In SPR one partner is held on a chip, and binding of the other changes the refractive index at the surface.

For experiment [3], the target named is T3, full length human TFPI (human, UniProt P10646 29-304).
T3 construct: also called wild type (wt) TFPI; TFPI Fl
T3 sequence: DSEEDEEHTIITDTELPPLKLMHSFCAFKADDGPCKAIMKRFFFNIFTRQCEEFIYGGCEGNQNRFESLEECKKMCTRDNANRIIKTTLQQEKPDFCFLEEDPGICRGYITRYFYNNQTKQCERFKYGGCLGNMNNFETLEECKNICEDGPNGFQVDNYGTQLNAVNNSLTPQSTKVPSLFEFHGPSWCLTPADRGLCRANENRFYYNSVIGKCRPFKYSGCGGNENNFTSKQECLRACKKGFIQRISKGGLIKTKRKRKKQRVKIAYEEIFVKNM
The experiment is described as above. The protocol:
as §4

Experiment [4] concerns the target T4, truncated TFPI (1-240) (human, UniProt P10646 29-268).
T4 construct: Expressed in HEK293-F cells; conditioned medium used
T4 sequence: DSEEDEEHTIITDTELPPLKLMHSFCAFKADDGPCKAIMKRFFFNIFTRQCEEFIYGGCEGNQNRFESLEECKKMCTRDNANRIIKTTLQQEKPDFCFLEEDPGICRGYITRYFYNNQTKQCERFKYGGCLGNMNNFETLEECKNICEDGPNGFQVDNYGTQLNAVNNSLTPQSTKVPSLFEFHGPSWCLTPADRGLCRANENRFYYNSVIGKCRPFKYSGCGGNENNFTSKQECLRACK
Description: binding of TFPI variants to anti-TFPI MAbs relative to TFPI-WT (=1.0); ELISA or ForteBio with HEK293-F conditioned medium, Example 7. The method, then:
as §1, §2, §3

B1: MuTFPI22F71 (antibody, mouse IgG1, V domains shown)
VH: EVQLQQSGTVLARPGASVKMSCKASGYSFTTYWIHWVKQRPGQGLEWIGAIDPGNSDATYSQKFKDKAKLTAVTSASTAFMELNSLTNDDSAVYYCSREVYYGYDGDYFDYWGQGTTLTVSS
VL: DIVLTQSPASLAVSLGQRATISCRASESVSVHGTHLMHWYQQKPGQPPKLLIYAASKLESGVPARFSGSGSETDFTLNIHPVEEEDAATYFCQQSIGDPWTFGGGTKLEIKR
notes: also called anti-TFPI22F71
For the molecule B1, in experiment [1], the binding result was “no binding”. In addition, the Kd is 0.18 nM in experiment [2] and 0.8 nM in experiment [3].

B2: MuTFPI22F66 (antibody, mouse IgG1, V domains shown)
VH: EVQLQQSGPELVKPGASMKISCKASGYSFTGYPMNWVRQSHGKNLEWIGLINPYNGDTTFNQKFKGKATLTVDKSSSTAYMELLSLTSEDSAVYYCARGTYEYVDYWGQGTTLTVSS
VL: QIVLTQSPTIMSASPGERVTMTCSASSSVFYMHWYQQKPGSSPRLLIYDTSILSSGVPVRFSGSGSGTSYSLTIRRMEAEDAATYYCQQWSSYPLTFGAGTKLELKR
notes: also called anti-TFPI22F66
For B2, the binding result in experiment [4] and in experiment [1] was “no binding” each time. The results for the equilibrium dissociation constant (Kd) in experiment [2] and in experiment [3] were 3.76 nM and 0.6 nM, respectively.

B3: MuTFPI4F110 (antibody, mouse IgG1, V domains shown)
VH: QVQLQQSGAELVKPGASVKLSCKASGYTFISYYMYWVKQRPGQGLEWIGEINPSNGDTNLNEKFKSKATLTVDKSSSTVYMQLSSLTSEDSAVYYCTRWDRFDGFVYWGQGTLVTVSA
VL: ETTVTQSPASLSMAIGGKVTIRCIISTNIDDDINWYQQKPGEPPKLLISEGNTLRPGVPSRFSSSGYGTDFVFTIENMLSEDVADYYCLQSDDLPYTFGGGTKLEIKR
notes: also called anti-TFPI4F110; mAb 4F110
With B3, the Kd in experiment [3] is 0.002 nM.

One may read the Kd as the equilibrium constant for the complex coming apart.
